Results on three molecules are retold here after US20230303695A1 (SHANGHAI XBH BIOTECHNOLOGY, published 2023).

Assay [1] deals with T1, recombinant human IGSF8 extracellular domain tagged by a human Fc region (IGSF8-hFc) (human, UniProt Q969P0 28-579, biotin label in Examples 17, 18 and 28 (site not given)).
T1 construct: also called IGSF8-Fc fusion protein; IGSF8-hFc-biotin; not shown: human Fc region
T1 sequence: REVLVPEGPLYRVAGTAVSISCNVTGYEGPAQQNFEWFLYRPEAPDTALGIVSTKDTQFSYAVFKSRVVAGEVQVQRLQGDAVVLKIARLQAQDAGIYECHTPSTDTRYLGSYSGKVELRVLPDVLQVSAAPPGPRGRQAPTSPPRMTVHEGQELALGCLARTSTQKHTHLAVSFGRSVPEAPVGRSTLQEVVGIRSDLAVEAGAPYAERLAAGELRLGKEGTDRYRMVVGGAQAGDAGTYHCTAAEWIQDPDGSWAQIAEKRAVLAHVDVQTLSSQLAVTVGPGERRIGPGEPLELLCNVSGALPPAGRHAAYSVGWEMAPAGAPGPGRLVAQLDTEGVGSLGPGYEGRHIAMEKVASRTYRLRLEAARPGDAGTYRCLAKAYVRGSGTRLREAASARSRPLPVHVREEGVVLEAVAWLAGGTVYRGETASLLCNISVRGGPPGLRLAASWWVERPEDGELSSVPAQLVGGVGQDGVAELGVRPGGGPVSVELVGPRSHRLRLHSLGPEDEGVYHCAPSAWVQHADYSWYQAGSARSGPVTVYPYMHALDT
Description: FACS blocking assay: antibody titrated against biotinylated IGSF8-hFc (1 ug/mL) binding to KIR3DL2 on CT26 cells, Streptavidin-PE. As to the method: CT26 cells with forced ectopic/exogenous human KIR3DL2 expression were incubated with biotinylated IGSF8-hFc recombinant protein (1 μg/mL) in the presence of the antibodies L1-20, L2-10, and a isotype control antibody. The binding of IGSF8-hFc-biotin to the Ct26 cells was determined using Streptavidin-PE by flow cytometry analysis (FIG. 39).

The target of assay [2] is T2, human IGSF8 expressed on the cell surface (human, UniProt Q969P0 28-613).
T2 construct: whole, on cells; also called human IGSF8 on CT26 cells; IGSF8 on MC38 cells
T2 sequence (looked up): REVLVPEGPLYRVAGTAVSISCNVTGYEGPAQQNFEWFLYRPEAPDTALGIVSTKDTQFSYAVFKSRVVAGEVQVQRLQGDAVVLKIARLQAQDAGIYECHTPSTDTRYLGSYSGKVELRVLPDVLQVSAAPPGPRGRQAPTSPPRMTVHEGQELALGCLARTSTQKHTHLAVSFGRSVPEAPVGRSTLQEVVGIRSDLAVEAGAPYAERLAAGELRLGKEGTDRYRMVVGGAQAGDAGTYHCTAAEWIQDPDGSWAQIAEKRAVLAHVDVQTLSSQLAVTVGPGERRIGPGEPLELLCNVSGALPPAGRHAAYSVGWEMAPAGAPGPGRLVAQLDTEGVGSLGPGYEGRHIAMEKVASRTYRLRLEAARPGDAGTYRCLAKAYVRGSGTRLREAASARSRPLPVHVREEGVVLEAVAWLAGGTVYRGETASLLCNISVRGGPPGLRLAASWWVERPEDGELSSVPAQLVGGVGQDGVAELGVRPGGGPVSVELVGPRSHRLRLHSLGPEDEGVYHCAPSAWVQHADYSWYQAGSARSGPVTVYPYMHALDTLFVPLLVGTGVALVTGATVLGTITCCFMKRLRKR
In words: FACS on CT26 cells expressing IGSF8. As to the method:
(§1) To test cross reactivity of the L1, and L2 antibodies, CT26 cells with forced human, cynomolgus monkey, or mouse IGSF8 expression were generated by lentiviral delivery. For antibody binding assays based on cell-expressed antigens, 100,000 cells overexpressing the antigen were washed with PBS buffer containing 2% FBS, and then incubated with 100 μL of antibodies or IgG of different concentrations for 30 minutes on ice. Cells were then washed twice with wash buffer, and incubated with 100 μL of 1:100 anti-human Fc-PE antibody for 15 minutes on ice. Cells were washed twice with wash buffer and analyzed on a FACS analyzer (CytoFlex, Beckman). The MFI was plotted vs. antibody concentration. The EC50 cell binding potenct was calculated using nonlinear regression curve fit.

For assay [3], the target named is T3, cynomolgus monkey IGSF8 expressed on CT26 cells (cynomolgus monkey, UniProt Q969P0 28-613 (human entry)).
T3 sequence: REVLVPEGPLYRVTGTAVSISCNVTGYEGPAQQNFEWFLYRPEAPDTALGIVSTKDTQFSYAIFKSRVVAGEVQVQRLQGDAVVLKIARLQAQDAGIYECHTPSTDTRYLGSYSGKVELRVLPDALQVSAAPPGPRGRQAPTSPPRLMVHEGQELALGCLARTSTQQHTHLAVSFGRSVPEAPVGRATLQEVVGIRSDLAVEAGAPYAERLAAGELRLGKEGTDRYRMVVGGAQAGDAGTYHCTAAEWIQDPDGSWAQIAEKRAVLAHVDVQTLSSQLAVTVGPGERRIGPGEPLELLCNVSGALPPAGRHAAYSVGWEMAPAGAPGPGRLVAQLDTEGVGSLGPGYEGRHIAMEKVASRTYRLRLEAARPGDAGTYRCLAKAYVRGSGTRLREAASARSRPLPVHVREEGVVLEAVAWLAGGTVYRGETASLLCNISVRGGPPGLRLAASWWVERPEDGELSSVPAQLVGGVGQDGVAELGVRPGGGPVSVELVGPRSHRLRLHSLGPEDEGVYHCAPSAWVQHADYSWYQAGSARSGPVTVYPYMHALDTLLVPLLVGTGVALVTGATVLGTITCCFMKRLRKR
Description: FACS on CT26 cells expressing IGSF8. The protocol: as §1

Assay [4] has as its target T4, mouse IGSF8 expressed on CT26 cells (mouse, UniProt Q8R366 26-611).
T4 construct: whole, on cells
T4 sequence (looked up): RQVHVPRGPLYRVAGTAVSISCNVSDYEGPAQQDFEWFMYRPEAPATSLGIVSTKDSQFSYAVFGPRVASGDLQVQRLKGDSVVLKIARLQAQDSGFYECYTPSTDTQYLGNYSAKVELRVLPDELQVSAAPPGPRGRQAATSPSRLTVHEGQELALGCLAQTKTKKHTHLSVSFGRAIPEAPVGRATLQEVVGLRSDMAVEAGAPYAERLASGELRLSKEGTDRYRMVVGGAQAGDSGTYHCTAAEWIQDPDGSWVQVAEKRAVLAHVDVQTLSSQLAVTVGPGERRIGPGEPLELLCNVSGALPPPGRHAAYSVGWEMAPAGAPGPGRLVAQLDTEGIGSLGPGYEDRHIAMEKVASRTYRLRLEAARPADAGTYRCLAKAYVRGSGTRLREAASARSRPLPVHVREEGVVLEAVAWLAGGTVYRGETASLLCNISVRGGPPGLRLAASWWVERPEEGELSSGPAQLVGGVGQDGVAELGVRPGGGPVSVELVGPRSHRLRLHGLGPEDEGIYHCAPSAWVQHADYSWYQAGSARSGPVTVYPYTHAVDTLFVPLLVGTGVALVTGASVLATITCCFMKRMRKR
Description: FACS on CT26 cells expressing IGSF8. The protocol:
as §1

Assay [5] addresses T1, recombinant human IGSF8 extracellular …. In words: SPR, Ab captured. The protocol: The binding affinities of the L1 and L2 antibodies to IGSF8 recombinant protein were determined by surface plasmon resonance (SPR). Briefly, anti-human Fab antibody was imobilized on acarboxyl-derivatized SPR chip surface, and the antibodies were captured on the resulting surface at 5 μg/ml for 30 seconds.
(SPR reads the build-up and loss of mass on a sensor chip optically.)

Assay [6] has the same target. Description: FACS, IGSF8-hFc on CT26 cells, MFI normalized to Thy1.1. The protocol: KLRC1 also contains a ITIM motif in its intracellular domain, and was known to be a inhibitory receptor of NK or CD8⁺ T cells as part of a heterodimer with KLRD1 on the cell surface. […] Specifically, 100,000 CT26 cells overexpressing the antigens (KIRs or KLRs) were washed with PBS buffer containing 2% FBS, and incubated with 100 μL IGSF8 recombinant proteins or antibodies (5 μg/mL) for 30 minutes on ice. Cells were then washed twice with wash buffer, and incubated with 100 μL of 1:100 anti-human Fc-PE antibody for 15 minutes on ice. Cells were washed twice with wash buffer and analyzed on a FACS analyzer (CytoFlex, Beckman). In these experiments, the mean fluorescence intensity (MFI) of IGSF8 binding to different CT26 cells were normalized by the expression of different KLRs on CT26 cells using an anti-thy1.1 mAb via flow cytometry.

B1: L1-20 (antibody, IgG1, V domains shown)
VH: QVQLVESGGGVVQPGRSLRLSCAASGFTFSTYGMHWVRQAPGKGLEWVAVIWDDGSYKYYGDSVKGRFTISRDNSKNTLYLQMNSLRAEDTAVYYCARDGSGWGYAFDIWGQGTLVTVSS
VL: DIQLTQSPSSLSASVGDRVTITCQASQDIEWWLNWYQQKPGKAPKLLIYGSPNLETGVPSRFSGSGSGTDFTFTISSLQPEDIATYYCQQYDSFPYTFGQGTKVEIK
notes: also called L1-20-IgG1
As usually defined, the EC50 is the midpoint of the concentration-response curve. In general, Kd refers to the constant that tells how readily two partners part at equilibrium. A word on the koff: it is a measure of how fast the partners let go of each other. Usually kon stands for the rate constant with which the complex forms. In the case of B1, the “IC50 (read off the curve)” value in assay [1] is about 0.3 µg/mL. In assay [2], this molecule came in with an EC50 of 0.0537 µg/mL. Besides, the 50% effective concentration (EC50) in assay [3] was 0.0268 µg/mL. In assay [4], this molecule registered a 50% effective concentration (EC50) of 0.0275 µg/mL. In addition, in assay [5], the Kd stood at 21.4 pM, the off-rate (koff) was determined as 7.02e-06 s⁻¹ and the kon amounted to 329000 M⁻¹ s⁻¹.

B2: L1-01 (antibody, V domains shown)
VH: QVQLVESGGGVVQPGRSLRLSCAASGFTFSTYGMHWVRQAPGKGLEWVAVIWDDGSYKYYGDSVKGRFTISRDNSKNTLYLQMNSLRAEDTAVYYCARDGSGWGYAFDIWGQGTMVTVSS
VL: DIQLTQSPSSLSASVGDRVTITCQASQDISEYLNWYQHKPGKAPNPLVFDAANLETGVPPRFSATGSGTDFSLTITSLQPEDFATYYCQQYDSFPYTFGQGTRLDIK
notes: Expressed in CHO cells; also called L1 antibody; L1-01-IgG1
For B2, the EC50 in assay [2] was 0.206 µg/mL; in assay [3], 0.224 µg/mL; in assay [4], 0.538 µg/mL.

B3: KLRD1 alone on CT26 cells (receptor, UniProt Q13241 1-179, looked up)
chain: MAVFKTTLWRLISGTLGIICLSLMSTLGILLKNSFTKLSIEPAFTPGPNIELQKDSDCCSCQEKWVGYRCNCYFISSEQKTWNESRHLCASQKSSLLQLQNTDELDFMSSSQQFYWIGLSYSEEHTAWLWENGSALSQYLFPSFETFNTKNCIAYNPNGNALDESCEDKNRYICKQQLI
notes: whole, on cells; also called KLRD1 monomer
Regarding B3, the binding result in assay [6] is listed as “no binding”.
